Literature values as cited in patent CN114306299A, “贝利司他在制备缓解和/或治疗缺血性脑卒中药物中的应用” (Institute of Materia Medica of CAMS and PUMC, priority 2020, dated 2022).

Test system: stroke (脑卒中)
Conditions: clinical studies, fraction of patients

B1: t-PA: 美国FDA唯一批准用于治疗脑卒中的药物 (protein, UniProt P00750 36-562, looked up)
Tissue-type plasminogen …: SYQVICRDEKTQMIYQQHQSWLRPVLRSNRVEYCWCNSGRAQCHSVPVKSCSEPRCFNGGTCQQALYFSDFVCQCPEGFAGKCCEIDTRATCYEDQGISYRGTWSTAESGAECTNWNSSALAQKPYSGRRPDAIRLGLGNHNYCRNPDRDSKPWCYVFKAGKYSSEFCSTPACSEGNSDCYFGNGSAYRGTHSLTESGASCLPWNSMILIGKVYTAQNPSAQALGLGKHNYCRNPDGDAKPWCHVLKNRRLTWEYCDVPSCSTCGLRQYSQPQFRIKGGLFADIASHPWQAAIFAKHRRSPGERFLCGGILISSCWILSAAHCFQERFPPHHLTVILGRTYRVVPGEEEQKFEVEKYIVHKEFDDDTYDNDIALLQLKSDSSRCAQESSVVRTVCLPPADLQLPDWTECELSGYGKHEALSPFYSERLKEAHVRLYPSSRCTSQHLLNRTVTDNMLCAGDTRSGGPQANLHDACQGDSGGPLVCLNDGRMTLVGIISWGLGCGQKDVPGVYTKVTNYLDWIRDNMRP
patients in whom treatment is ineffective or condition worsens (after t-PA treatment): 三分之二 | patients in whom t-PA is effective: 三分之一
